Results from US20180105597A1 (Eli Lilly, published 2018).

T1: FcγR2a(H) (human, UniProt P12318 36-218)
T1 construct: also called human Fc-gamma receptor 2a, H form
T1 sequence (looked up): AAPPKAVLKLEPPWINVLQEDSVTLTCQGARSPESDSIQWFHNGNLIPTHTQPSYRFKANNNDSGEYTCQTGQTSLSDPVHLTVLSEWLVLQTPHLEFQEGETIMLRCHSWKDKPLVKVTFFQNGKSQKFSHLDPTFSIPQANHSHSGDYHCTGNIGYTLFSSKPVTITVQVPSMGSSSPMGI


Legend:
TGFβ RII AP [1] = molecular target: T2, TGFβ RII AP (UniProt P37173 23-166); assay: ligand blocking ELISA, TGFβ RII AP binding to coated TGFβ ligand 1 (competitor)
Description: (§1) A serial dilution of purified antibodies was incubated with TGFβ RII AP for 1 h in TGFβ-coated plates. After wash, p-nitrophenyl phosphate substrate was added to the wells for color development. The values of absorbance at 405 nm were read on a microtiter plate reader (Molecular Devices Corp) for the quantification of TGFβ RII binding to TGFβ. IC50 of the antibodies was analyzed using GraphPad Prism.

TGFβ RII AP [2] = molecular target: T2, TGFβ RII AP; assay: ligand blocking ELISA, TGFβ RII AP binding to coated TGFβ ligand 3 (competitor)
Description: as §1

TGFβ RII AP [3] = molecular target: T2, TGFβ RII AP; assay: ligand blocking ELISA, TGFβ RII AP binding to coated TGFβ ligand 2 (competitor)
Description: as §1

[4] = molecular target: T3, huTGFβ RIIFc (recombinant extracellular domain of human TGFβ RII fused to Fc) (human, UniProt P37173 23-166); assay: SPR (Biacore), TGFβ RII-Fc extracellular domain immobilized at low density; Antibody A; KD
T3 construct: The Fc is not described; also called human TGFβ RIIFc; not shown: Fc part
Description: (§2) The association (kon) and dissociation (koff) rates were determined using BIAevaluation 2.1 software.

[5] = molecular target: T3, huTGFβ RIIFc (recombinant extracellular …); assay: ELISA, huTGFβ RIIFc coated, antibody titrated; Antibody A; binding ELISA
Description: (§3) For binding assays, huTGFβ RIIFc was coated on microplates. […] After washing, plates were incubated with HRP-labelled goat anti-rat Fab detection antibody and subsequently TMB peroxidase substrate was added to the wells for color development. The values of absorbance at 405 nm were read on a microtiter plate reader (Molecular Devices Corp). EC₅₀ of the antibodies was analyzed using GraphPad Prism.

FcγR1 = molecular target: T4, FcγR1 (human, UniProt P12314 16-288); assay: solid phase binding assay (Meso Scale), receptor coated, antibody titrated
T4 construct: also called human Fc-gamma receptor 1
Description: (§4) Receptor protein (50 ng/well) was added to the wells of a Meso Scale standard bare plate in PBS. […] The plates were washed three times in PBS/0.05% Tween-20. Stock solutions of all antibodies were prepared at 0.5 mg/mL in 1% MSD blocker A in PBS-Tween and serially diluted 1:3. The indicated antibodies were added to each reaction well. Recombinant protein and antibodies were incubated for 2 hours at room temperature and then the plates were washed 2 times with PBS/0.05% Tween. Secondary antibody was added to each well. After one hour at room temperature with agitation followed by 40 mins at room temperature, the plates were washed 2 times with PBS/0.05% Tween-20. For detection, 150 μL of a 1× Read Buffer (MSD cat # R92TC-1, 4×) were added to each well. The plate was then read using a Sector Imager 2400.

FcγR3a (V) = molecular target: T5, FcγR3a (V) (human, UniProt P08637 17-208); assay: as above
T5 construct: V158 allotype as printed
Description: as §4

FcγR2a(H) = molecular target: T1, FcγR2a(H); assay: as above
Description: as §4

human C1q = human C1q (human, UniProt P02745 23-245; P02746 28-253; P02747 29-245); assay: cell-based or functional assay
[6] = molecular target: T3, huTGFβ RIIFc (recombinant extracellular …); assay: SPR (Biacore), TGFβ RII-Fc extracellular domain immobilized at low density; LY3022859; KD
Description: as §2

[7] = molecular target: T3, huTGFβ RIIFc (recombinant extracellular …); assay: ELISA, huTGFβ RIIFc coated, antibody titrated; LY3022859; binding ELISA
Description: as §3

human C1q, sequence (P02745 23-245 limits assumed, chain 1 of 3): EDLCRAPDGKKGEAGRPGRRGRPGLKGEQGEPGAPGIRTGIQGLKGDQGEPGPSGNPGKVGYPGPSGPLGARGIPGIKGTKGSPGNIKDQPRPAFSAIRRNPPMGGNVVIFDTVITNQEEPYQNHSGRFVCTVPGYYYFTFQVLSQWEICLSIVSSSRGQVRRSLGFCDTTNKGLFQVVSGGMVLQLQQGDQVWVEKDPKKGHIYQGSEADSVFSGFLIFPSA
human C1q, sequence (P02746 28-253 limits assumed, chain 2 of 3): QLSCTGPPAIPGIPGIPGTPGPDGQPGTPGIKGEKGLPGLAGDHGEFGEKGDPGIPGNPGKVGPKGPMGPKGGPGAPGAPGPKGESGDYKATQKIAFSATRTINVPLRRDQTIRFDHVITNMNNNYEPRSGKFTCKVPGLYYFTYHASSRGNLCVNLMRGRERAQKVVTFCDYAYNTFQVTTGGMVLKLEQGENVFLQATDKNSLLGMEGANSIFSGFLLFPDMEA
human C1q, sequence (P02747 29-245 limits assumed, chain 3 of 3): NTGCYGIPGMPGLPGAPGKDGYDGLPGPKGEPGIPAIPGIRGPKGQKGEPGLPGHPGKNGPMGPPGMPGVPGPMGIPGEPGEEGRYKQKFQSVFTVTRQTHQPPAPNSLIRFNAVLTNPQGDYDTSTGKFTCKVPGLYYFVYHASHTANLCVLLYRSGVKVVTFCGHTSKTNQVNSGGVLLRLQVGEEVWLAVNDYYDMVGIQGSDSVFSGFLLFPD
T2 sequence (P37173 23-166): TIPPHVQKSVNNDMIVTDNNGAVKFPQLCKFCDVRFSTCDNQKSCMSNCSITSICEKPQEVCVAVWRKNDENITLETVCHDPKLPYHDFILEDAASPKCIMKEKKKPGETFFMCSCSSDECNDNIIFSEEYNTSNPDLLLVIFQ
T3 sequence (P37173 23-166): as above
T5 sequence (P08637 17-208 F176V): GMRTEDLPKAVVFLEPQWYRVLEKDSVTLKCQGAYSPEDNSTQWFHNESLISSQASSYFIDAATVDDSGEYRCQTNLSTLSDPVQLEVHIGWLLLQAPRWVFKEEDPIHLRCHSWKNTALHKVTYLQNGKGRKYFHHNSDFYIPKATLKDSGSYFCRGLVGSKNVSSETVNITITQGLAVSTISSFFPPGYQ
T4 sequence (P12314 16-288): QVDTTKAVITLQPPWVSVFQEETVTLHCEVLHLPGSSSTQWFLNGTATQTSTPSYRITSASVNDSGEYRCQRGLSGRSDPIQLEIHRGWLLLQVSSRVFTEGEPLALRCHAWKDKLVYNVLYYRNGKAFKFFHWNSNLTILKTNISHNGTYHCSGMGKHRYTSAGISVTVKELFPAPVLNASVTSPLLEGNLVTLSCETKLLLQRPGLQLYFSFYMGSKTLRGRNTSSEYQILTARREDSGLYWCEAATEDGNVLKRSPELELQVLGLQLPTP

IC50 (TGFβ RII AP [1]) [nM] | IC50 (TGFβ RII AP [2]) [nM] | IC50 (TGFβ RII AP [3]) [nM] | Kd [4] [nM] | EC50 [5] [nM] | EC50 (FcγR1) [nM] | EC50 (FcγR3a (V)) [nM] | EC50 (FcγR2a(H)) [nM] | CDC activity EC50 (nM), BxPC3 target cells, human complement (human C1q) [nM] | CDC activity EC50 (nM), HEK293 target cells, human complement (human C1q) [nM] | CDC activity EC50 (nM), MDA-MB-231 target cells, human complement (human C1q) [nM] | CDC activity EC50 (nM), TGFRβII-HEK target cells, human complement (human C1q) [nM] | Kd [6] [nM] | EC50 [7] [nM] | Binder
4.83 | 4.36 | 4.4 | 0.0222 | 0.277 | > 2000 | > 2000 | > 2000 | > 200 | > 200 | > 200 | > 200 |  |  | Antibody A (antibody, human IgG1, kappa, same variable regions as LY3022859; also called anti-TGFβ RII antibody IgG1 effector null) heavy: QLQVQESGPGLVKPSETLSLTCTVSGGSISNSYFSWGWIRQPPGKGLEWIGSFYYGEKTYYNPSLKSRATISIDTSKSQFSLKLSSVTAADTAVYYCPRGPTMIRGVIDSWGQGTLVTVSSASTKGPSVFPLAPSSKSTSGGTAALGCLVKDYFPEPVTVSWNSGALTSGVHTFPAVLQSSGLYSLSSVVTVPSSSLGTQTYICNVNHKPSNTKVDKRVEPKSCDKTHTCPPCPAPEAEGAPSVFLFPPKPKDTLMISRTPEVTCVVVDVSHEDPEVKFNWYVDGVEVHNAKTKPREEQYNSTYRVVSVLTVLHQDWLNGKEYKCKVSNKALPSSIEKTISKAKGQPREPQVYTLPPSREEMTKNQVSLTCLVKGFYPSDIAVEWESNGQPENNYKTTPPVLDSDGSFFLYSKLTVDKSRWQQGNVFSCSVMHEALHNHYTQKSLSLSPGK light: not shown
5.48 | 4.41 | 4.45 |  |  |  |  |  |  |  |  |  | 0.0106 | 0.306 | LY3022859 (antibody, IgG1, V domains shown, the antibody is disclosed in WO 2010/053814; also called TGFβRII mAb LY3022859; anti-TGFβ RII antibody IgG1) VH: QLQVQESGPGLVKPSETLSLTCTVSGGSISNSYFSWGWIRQPPGKGLEWIGSFYYGEKTYYNPSLKSRATISIDTSKSQFSLKLSSVTAADTAVYYCPRGPTMIRGVIDSWGQGTLVTVSS VL: EIVLTQSPATLSLSPGERATLSCRASQSVRSYLAWYQQKPGQAPRLLIYDASNRATGIPARFSGSGSGTDFTLTISSLEPEDFAVYYCQQRSNWPPTFGQGTKVEIK
